According to article PMC12342048, “Cleavage of Cartilage Oligomeric Matrix Protein (COMP) by ADAMTS4 generates a neoepitope associated with osteoarthritis and other forms of degenerative joint disease” (Matrix biology : journal of the International Society for …, 2024):

Key:
[1] = biological target: the molecule itself; assay: non-reducing SDS-PAGE with immunoblot; hCOMP (520 nM) incubated with ADAMTS4 WT (12 nM) for 2 h at 37 °C in TNC-B; non-reducing SDS-PAGE, immunoblot with anti-QQS77 neoepitope antibody
[2] = biological target: the molecule itself; assay: non-reducing SDS-PAGE; purified COMP, 4 μg/lane, 4–12 % SDS-PAGE under non-reducing conditions, Coomassie Brilliant Blue staining; under reducing conditions (5 % β-mercaptoethanol) a monomer band at ~100 kDa

Row | Protein | stoichiometry N [1] | binding result [2]
1 | fully cleaved N-terminal domain (NTD) of COMP ending at the QQS77 neoepitope (domain or fragment, human, UniProt P49747-1 21-77, looked up, Cartilage Oligomeric Matrix Protein, human, N-terminal product of the cleavage at the S77-V78 bond; numbers count on NP_000086.2 (precursor); Made by proteolysis of m2; also called fully cleaved NTD pentamer; N-terminal cleavage fragment; source: hCOMP (520 nM, purified from Freestyle 293-F medium) digested with purified ADAMTS4 (12 nM), 2 h, 37 °C) QGQSPLGSDLGPQMLRELQETNAALQDVRELLRQQVREITFLKNTVMECDACGMQQS | 5 | 
2 | Drosophila melanogaster S2-expressed human COMP (Cartilage Oligomeric Matrix Protein) (natural protein, N-linked glycans (shown by PNGase F), Cartilage Oligomeric Matrix Protein, human; the Drosophila BiP secretion signal is fused to Gly22 of COMP and cleaved off before secretion to give a native N terminus; numbers count on NP_000086.2 (precursor); on non-reducing SDS-PAGE a mixture of monomers to pentamers was seen; also called iCOMP; thrombospondin 5; source: Drosophila melanogaster Schneider 2 (S2) cells, purified from conditioned …) not shown |  | binds
